Residue numbers refer to the chain shown, from its start. Values belong to the molecule of their own block, whether it stands above or below them. [ ]: non-standard residue; d: D form. Nle = CCCC[C@H](N)C(=O)O
Legend:
corneodesmosin = assay: Degradation of corneodesmosin extracted from human stratum corneum; format: biochemical; conditions: for % Residual corneodesmosin T24 h/T0*100 / Standardized corneodesmosin T24 h / Standardized corneodesmosin T0: stratum corneum acetone powder; for % Residual corneodesmosin T24 h/T0*100 / Standardized corneodesmosin T24 h: acetate buffer pH 5, 30° C.; for Standardized corneodesmosin T0: acetate buffer pH 5, T0
Experimental: Corneodesmosin is a marker for desquamation since it is involved in corneocyte cohesion at corneodesmosomes. The more the protein is degraded, the more significant is the detachment of the corneocytes. Corneodesmosin degradation is therefore a key step of desquamation.
The test used in this study therefore consists in following this degradation in the presence of the test substance.
Acetone powders are prepared using stripping varnish (Mehul B, Bernard D, Simonetti L, Bernard M A, Schmidt R: Identification and cloning of a new calmodulin-like protein from human epidermis. J Biol Chem 275: […], 2000), taken from the lower parts of the legs of volunteers with dry skin. Aliquot fractions of 2 mg of stratum corneum powder are introduced separately into Eppendorf tubes, and then immersed in the test solutions in a proportion of 100 μl/mg. The solutions are prepared in acetate buffer, pH 5. A control without protease is prepared in parallel in order to evaluate the natural degradation of corneodesmosin. For each test, three samples are prepared. The samples, trials and control, are incubated at 30° C., with stirring for 24 hours.
The proteins are extracted with complete Laemmli buffer. They are assayed by the Bradford method (Bio-Rad® kit). The concentration of each sample is adjusted so as to allow comparison of the samples. The polypeptides are separated by SDS-PAGE electrophoresis on a 15% acrylamide gel, and then transferred onto a PVDF membrane. Immunodetection with a solution of anti-corneodesmosin antibody used at 1/12 500 and of secondary antibody coupled to peroxidase makes it possible to visualize the corneodesmosin. The bands detected by chemiluminescence are quantified using the Quantity One® program from the company Biorad. The membranes are then stained with amido-black, and then scanned. In addition, the keratins, which are major proteins of corneocyte extracts, are quantified in order to verify the adjustment to 0.6 mg/ml of all the samples.
A positive control for degradation (+) is prepared using 5 mM of EDTA. A trial is carried out in the presence of 60 μg of activated SASPase. A negative control represents the natural degradation of corneodesmosin under the operating conditions of the test.

[1] = target: T1, activated SASPase (SEQ ID NO: 6) (Homo sapiens, UniProt Q53RT3); assay: Effect of retropepsin inhibitors on the caseinolytic activity of the activated SASPase; format: biochemical; conditions: activated SASPase in 0.1 M acetate buffer pH 5.5 with DMSO, pre-incubated 1 hour at 4° C., Enzchek casein, 37° C., FIG. 3
T1 construct: GST (N, cleaved yes); made in house; host or cells: E. coli BL21 (DE3)
T1 sequence (Q53RT3 189-326): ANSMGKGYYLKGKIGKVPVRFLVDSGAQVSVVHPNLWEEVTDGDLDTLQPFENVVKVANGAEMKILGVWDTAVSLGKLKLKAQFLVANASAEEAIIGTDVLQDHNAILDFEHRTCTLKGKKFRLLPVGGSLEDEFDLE
Experimental: 10 μl of activated SASPase (SEQ ID NO: 6) that have been autoactivated (approximately 3 mg/ml) are added to 200 μl of 0.1 M acetate buffer, pH 5.5, containing 20 μl of DMSO with retropepsin inhibitors. A control assay is carried out under the same conditions in the absence of inhibitor.
The mixture is pre-incubated at 4° C. for 1 hour, and the substrate, casein, sold under the name Enzchek® by the company Molecular Probes, is then added in sufficient amount to obtain the concentration recommended by the supplier, the solutions having been heated to 37° C. beforehand.
The casein hydrolysis is followed by measuring the fluorescence on a Biolumin® plate reader sold by the company Molecular Probes, using the excitation/emission couple: 485/535 nm.

SASPase (GST-C27) = target: T2, SASPase (GST-C27) (Homo sapiens, UniProt Q53RT3); assay: Hydrolysis of quenched Abz/(NO2)Tyr peptide substrates by the SASPase; format: biochemical
T2 construct: made in house; host or cells: E. coli BL21 (DE3)
T2 sequence (Q53RT3 85-343): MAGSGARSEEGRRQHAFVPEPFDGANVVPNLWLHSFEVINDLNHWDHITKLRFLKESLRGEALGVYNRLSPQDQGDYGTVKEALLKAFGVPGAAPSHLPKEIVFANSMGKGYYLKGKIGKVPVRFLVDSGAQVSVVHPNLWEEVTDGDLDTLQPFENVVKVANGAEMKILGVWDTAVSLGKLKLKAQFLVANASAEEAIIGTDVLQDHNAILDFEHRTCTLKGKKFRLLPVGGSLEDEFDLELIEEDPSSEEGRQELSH
Experimental: The peptide substrate considered (SEQ ID NO: 31, SEQ ID NO: 32, SEQ ID NO: 33, SEQ ID NO: 34 or SEQ ID NO: 35) quenched using the Abz/(NO2)Tyr fluorescent system is used at 100 μM in DMSO, and then 10 μl of this stock substrate solution are added per 100 μl of 0.1 M acetate buffer, pH 5.00.
10 μg of GST-C27 (fusion protein at 1 mg/ml in PBS) are added. Incubation is carried out at 37° C. The fluorescence is read at 340/450 nm on a Biolumin plate reader at various times.

[2] = tested on: oxidized beta-chain of insulin; assay: Hydrolysis of the oxidized beta-chain of insulin followed by HPLC; format: biochemical
Experimental: The oxidized beta-chain of insulin (Sigma) is used as substrate. The concentration is 50 μg in 1.5 ml of 0.1 M acetate buffer, pH 5.0. 50 μl of 12 kD SASPase (SEQ ID NO: 6) (approximately 1 mg/ml) purified by gel filtration are added so as to initialize the hydrolysis. Controls without enzyme or without substrate are used. Over time (1 h to 24 h at 37° C.), HPLCs are performed in order to follow the hydrolysis. The peaks that appear rapidly correspond to the main hydrolysis sites and those that only appear after 24 h correspond to the secondary sites. The peaks are collected after they have been fractionated, and are N-terminal sequences (EDMAN sequencing, Pasteur Institute).

casein = assay: Influence of pH on the proteolytic activity of SASPase (Enzchek casein substrate); format: biochemical
Experimental: 10 μl of GST-SASPase Δ 1-84 fusion proteins (approximately 3 mg/ml) obtained in example II are incubated in 200 μl of 0.1 M acetate buffer, adjusted to various pH values in the presence of the casein substrate sold under the name Enzchek® by the company Molecular Probes, and used at the concentrations recommended by the supplier.
Each assay is repeated three times.
After incubation at 37° C. for 20 hours, the fluorescence is measured on a plate reader sold under the name Biolumin® by the company Molecular Probes, using the excitation/emission couple: 485/535 nm.

[3] = tested on: SASPase C27 (autocleavage); assay: Autocleavage of the SASPase C27 and of its mutants (SDS-PAGE); format: biochemical, human; conditions: fusion protein in 1 M acetate buffer pH 4.5, 37° C., SDS-PAGE over time
Experimental: The SASPase sequence SEQ ID NO: 5 is modified at aspartic acid No. 212, i.e. on its potential active site. To do this, two oligonucleotides are synthesized such that amino acid 212 is substituted either to alanine (mutant A/D), or to glutamic acid (mutant E/D).
The mutated recombinant proteins are produced according to the same protocol as for the wild-type form, SASPase C27; (SEQ ID NO: 4).
Each recombinant protein produced in fusion protein form is then incubated in a 1 M acetate buffer, pH 4.5, at 37° C. Samples are taken over time and are analyzed by SDS-PAGE.

Molecule: O=C(O)CN(CCN(CC(=O)O)CC(=O)O)CC(=O)O [+control, EDTA, reference compound]
- % Residual corneodesmosin T24 h/T0*100 (corneodesmosin; 24 hours): 84%
- Standardized corneodesmosin T24 h (corneodesmosin; 24 hours): 26685
- Standardized corneodesmosin T0 (corneodesmosin): 31657

Molecule: EFDLDLIEED (listed as Homo sapiens) [SEQ ID NO: 32]
- effect of the peptide substrate on the SASPase (SASPase (GST-C27)): activator effect

Molecule: EFDLELIEED (listed as Homo sapiens) [SEQ ID NO: 31]
- effect of the peptide substrate on the SASPase (SASPase (GST-C27)): activator effect
- hydrolysis of the peptide substrate by the SASPase (SASPase (GST-C27); 0.1 M acetate buffer pH 5.00, 10 μg GST-C27, 37° C., fluorescence 340/450 nm, FIG. 5): effectively hydrolyzed

B1: SASPase: novel aspartic acid protease from human keratinocytes, sequence SEQ ID NO: 5; in b201 and b239 the word covers the form tested (protein, listed as Homo Sapiens)
chain: MGSPGASLGIKKALQSEQATALPASAPAVSQPTAPAPSCLPKAGQVIPTLLREAPFSSVIAPTLLCGFLFLAWVAAEVPEESSRMAGSGARSEEGRRQHAFVPEPFDGANVVPNLWLHSFEVINDLNHWDHITKLRFLKESLRGEALGVYNRLSPQDQGDYGTVKEALLKAFGVPGAAPSHLPKEIVFANSMGKGYYLKGKIGKVPVRFLVDSGAQVSVVHPNLWEEVTDGDLDTLQPFENVVKVANGAEMKILGVWDTAVSLGKLKLKAQFLVANASAEEAIIGTDVLQDHNAILDFEHRTCTLKGKKFRLLPVGGSLEDEFDLELIEEDPSSEEGRQELSH
- insulin-degrading activity after heat denaturation ([2]; heat denaturation 95° C., 10 min): abolishes its insulin-degrading activity
- activity in phosphate buffer (casein; 0.1 M phosphate buffer of pH 6 to 7.5, assays not shown): only a weak residual activity
- optimal pH of enzymatic activity (casein; GST-SASPase Δ 1-84 fusion protein, 0.1 M acetate buffer, 37° C., 20 hours, FIG. 2): 5 pH

B2: (A/D): SASPase mutant, aspartic acid No. 212 substituted to alanine (protein, UniProt Q53RT3 191-326, looked up, variant D212A)
Retroviral-like aspartic …: SMGKGYYLKGKIGKVPVRFLVASGAQVSVVHPNLWEEVTDGDLDTLQPFENVVKVANGAEMKILGVWDTAVSLGKLKLKAQFLVANASAEEAIIGTDVLQDHNAILDFEHRTCTLKGKKFRLLPVGGSLEDEFDLE
- autocleavage / autoactivation [3]: do not autoactivate

B3: (E/D): SASPase mutant, aspartic acid No. 212 substituted to glutamic acid (protein, UniProt Q53RT3 191-326, looked up, variant D212E)
Retroviral-like aspartic …: B2 Retroviral-like aspartic … with A22E
- autocleavage / autoactivation [3]: do not autoactivate

B4: GST-SASPase C27: recombinant fusion protein of glutathione S-transferase with truncated SASPase Δ 1-84 (SEQ ID NO: 4) (protein, listed as Homo Sapiens)
chain: T2 sequence (Q53RT3 85-343)
- autocleavage / autoactivation [3]: autocleavage

B5: activated SASPase: truncated 12 kD activated form of the aspartic acid protease SASPase, sequence SEQ ID NO: 6 (protein, listed as Homo Sapiens)
chain: T1 sequence (Q53RT3 189-326)
- percentage of residual corneodesmosin compared with the controls (corneodesmosin; 60 μg of activated SASPase, 24 hours): significant decrease
- % Residual corneodesmosin T24 h/T0*100 (corneodesmosin; 24 hours): 75%
- Standardized corneodesmosin T24 h (corneodesmosin; 24 hours): 24918
- Standardized corneodesmosin T0 (corneodesmosin): 33107
- insulin-degrading activity ([2]; 0.1 M acetate buffer pH 5.0, 37° C., 1 h to 24 h): capable of degrading insulin

More lines, now with the values ahead:

- kinetics for casein hydrolysis compared with the control [1]: lower than the control
Molecule: Ac-Leu-Leu-Met-aldehyde [RP2]

- kinetics for casein hydrolysis compared with the control [1]: significantly higher
Molecule: Ac-Leu-Leu-Nle-aldehyde (Ac-Leu-Leu-[Nle]-aldehyde) [RP3]

- kinetics for casein hydrolysis compared with the control [1]: lower than the control
Molecule: Ac-Leu-Val-Phe-aldehyde [RP1]

From US7888315B2, “Use of aspartic proteases in cosmetics and therapeutics” (L'Oreal, priority 2002, dated 2011)
